Molecular target: valosin-containing protein (VCP), histidine-tagged (UniProt P55072 1-806)
Assay: BLI

valosin-containing protein (VCP), histidine-tagged, sequence (P55072 whole entry): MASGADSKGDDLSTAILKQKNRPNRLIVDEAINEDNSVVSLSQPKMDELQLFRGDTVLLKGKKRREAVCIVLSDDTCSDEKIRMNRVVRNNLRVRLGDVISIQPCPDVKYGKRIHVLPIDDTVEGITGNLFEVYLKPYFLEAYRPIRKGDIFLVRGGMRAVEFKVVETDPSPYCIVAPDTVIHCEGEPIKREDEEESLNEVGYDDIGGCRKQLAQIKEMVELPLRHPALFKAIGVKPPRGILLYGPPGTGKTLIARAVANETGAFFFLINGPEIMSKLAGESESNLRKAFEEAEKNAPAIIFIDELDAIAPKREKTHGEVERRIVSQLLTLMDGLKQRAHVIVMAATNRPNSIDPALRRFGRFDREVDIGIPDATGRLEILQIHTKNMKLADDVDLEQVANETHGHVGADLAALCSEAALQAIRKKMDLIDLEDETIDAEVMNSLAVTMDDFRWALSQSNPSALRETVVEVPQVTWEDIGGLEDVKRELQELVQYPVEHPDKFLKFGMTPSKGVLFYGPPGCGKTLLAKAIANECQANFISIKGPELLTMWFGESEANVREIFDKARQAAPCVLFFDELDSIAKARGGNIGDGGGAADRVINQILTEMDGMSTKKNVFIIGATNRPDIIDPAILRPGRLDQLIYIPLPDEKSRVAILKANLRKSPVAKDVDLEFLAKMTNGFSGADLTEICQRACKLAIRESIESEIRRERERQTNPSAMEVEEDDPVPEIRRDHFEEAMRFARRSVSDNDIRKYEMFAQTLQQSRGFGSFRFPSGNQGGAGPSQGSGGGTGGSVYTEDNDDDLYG

B1: P1, protein-like polymer (PLP) with HVLVMSATRR peptide side chains (other)
peptide: HVLVMSATRR
modifications: N terminus conjugated to N-(hexanoic acid)-exo-5-norbornene-2,3-dicarboximide, polymerised through the norbornene (ROMP) into the polymer backbone
Binder B1 has a Kd of 92 nM and a koff of 2.5e-05 s⁻¹.

Reference: PMC11529722 (Science Advances, 2024)
